T1: human latent myostatin (human, UniProt O14793 25-266; O14793 267-375)
T1 construct: non-covalent complex of two propeptides and the mature homodimer; also called human myostatin latent form
T1 sequence 1: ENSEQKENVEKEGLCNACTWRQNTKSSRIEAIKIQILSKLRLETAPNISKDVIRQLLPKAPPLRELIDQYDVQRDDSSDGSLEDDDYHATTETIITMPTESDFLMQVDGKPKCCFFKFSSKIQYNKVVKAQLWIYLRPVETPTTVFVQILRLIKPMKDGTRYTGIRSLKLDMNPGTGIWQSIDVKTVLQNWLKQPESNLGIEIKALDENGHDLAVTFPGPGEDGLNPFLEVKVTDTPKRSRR
T1 sequence 2: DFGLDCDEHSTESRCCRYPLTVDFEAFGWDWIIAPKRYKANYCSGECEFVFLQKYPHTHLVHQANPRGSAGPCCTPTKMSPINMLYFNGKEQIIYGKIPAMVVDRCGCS

T2: cynomolgus monkey latent myostatin (cynomolgus monkey, UniProt Q95J86 25-266; Q95J86 267-375, limits assumed)
T2 construct: also called cyno latent myostatin
T2 sequence 1: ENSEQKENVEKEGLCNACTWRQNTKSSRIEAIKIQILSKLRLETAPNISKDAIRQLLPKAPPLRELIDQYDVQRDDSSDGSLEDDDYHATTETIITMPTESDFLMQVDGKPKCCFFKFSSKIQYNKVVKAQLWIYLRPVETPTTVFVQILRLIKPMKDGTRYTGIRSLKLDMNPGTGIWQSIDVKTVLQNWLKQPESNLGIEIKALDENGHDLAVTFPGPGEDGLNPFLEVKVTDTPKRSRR
T2 sequence 2: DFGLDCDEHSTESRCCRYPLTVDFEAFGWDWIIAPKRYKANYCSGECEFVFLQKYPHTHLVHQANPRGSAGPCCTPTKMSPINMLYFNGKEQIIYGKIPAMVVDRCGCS

T3: mouse latent myostatin (mouse, UniProt O08689 26-267; O08689 268-376)
T3 sequence 1: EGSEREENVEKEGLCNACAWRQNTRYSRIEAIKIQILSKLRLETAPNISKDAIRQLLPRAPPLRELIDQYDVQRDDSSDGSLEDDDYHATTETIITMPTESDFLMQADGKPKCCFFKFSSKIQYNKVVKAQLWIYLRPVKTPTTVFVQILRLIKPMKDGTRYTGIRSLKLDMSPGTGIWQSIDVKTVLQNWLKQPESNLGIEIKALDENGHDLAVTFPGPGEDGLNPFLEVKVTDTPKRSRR
T3 sequence 2: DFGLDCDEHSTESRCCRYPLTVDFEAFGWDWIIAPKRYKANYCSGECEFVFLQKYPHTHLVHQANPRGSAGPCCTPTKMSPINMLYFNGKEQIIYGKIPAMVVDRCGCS

T4: cyno Fc gamma RIIb extracellular domain, His-tagged (cynomolgus monkey)
T4 construct: also called cynoFcgRIIb
T4 chain: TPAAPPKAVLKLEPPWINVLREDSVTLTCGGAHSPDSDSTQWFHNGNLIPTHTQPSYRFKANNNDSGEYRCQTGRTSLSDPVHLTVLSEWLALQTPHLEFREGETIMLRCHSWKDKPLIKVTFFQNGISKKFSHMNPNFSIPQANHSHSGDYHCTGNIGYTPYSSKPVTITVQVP

T5: human Fc gamma RIIb extracellular domain, His-tagged (human, UniProt P31994 43-217)
T5 construct: also called FcgRIIb
T5 sequence: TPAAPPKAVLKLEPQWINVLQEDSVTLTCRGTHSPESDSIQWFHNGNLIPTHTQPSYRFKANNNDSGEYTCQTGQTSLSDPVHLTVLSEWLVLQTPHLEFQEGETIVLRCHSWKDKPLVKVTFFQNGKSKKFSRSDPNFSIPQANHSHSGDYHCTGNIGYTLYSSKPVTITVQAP


Legend:
human latent myostatin [1] = target: T1, human latent myostatin; experiment: SPR 37C pH7.4; pH 7.4
[2] = target: T2, cynomolgus monkey latent myostatin; experiment: SPR 37C pH7.4; pH 7.4
mouse latent myostatin [3] = target: T3, mouse latent myostatin; experiment: SPR 37C pH7.4; pH 7.4
human latent myostatin [4] = target: T1, human latent myostatin; experiment: SPR 37C pH5.8; pH 5.8
[5] = target: T2, cynomolgus monkey latent myostatin; experiment: SPR 37C pH5.8; pH 5.8
mouse latent myostatin [6] = target: T3, mouse latent myostatin; experiment: SPR 37C pH5.8; pH 5.8
human latent myostatin [7] = target: T1, human latent myostatin; experiment: SPR 37C
[8] = target: T2, cynomolgus monkey latent myostatin; experiment: SPR 37C
mouse latent myostatin [9] = target: T3, mouse latent myostatin; experiment: SPR 37C
[10] = target: T4, cyno Fc gamma RIIb extracellular …; experiment: SPR 25C
[11] = target: T5, human Fc gamma RIIb extracellular …; experiment: SPR 25C

Binder	Kd (human latent myostatin [1]) [pM]	Kd [2] [pM]	Kd (mouse latent myostatin [3]) [pM]	Kd (human latent myostatin [4]) [pM]	Kd [5] [pM]	Kd (mouse latent myostatin [6]) [pM]	ratio of KD at pH 5.8/pH7.4 (human latent myostatin [7])	ratio of KD at pH 5.8/pH7.4 [8]	ratio of KD at pH 5.8/pH7.4 (mouse latent myostatin [9])	binding result [10]	binding result [11]
MS_M103205H795-SG1/M103202L889-SK1 (antibody, human IgG1, kappa, also called MS1032LO06-SG1) heavy: not shown light: DIVMTQSPATLSLSPGERATLSCTSSQSVYHANWLSWFQQKPGQPPKLLIYWASTLAYGVPSRFSGSGSGTDFTLTISSLQPEDAATYYCAGGYGGGRYAFGQGTKVEIKRTVAAPSVFIFPPSDEQLKSGTASVVCLLNNFYPREAKVQWKVDNALQSGNSQESVTEQDSKDSTYSLSSTLTLSKADYEKHKVYACEVTHQGLSSPVTKSFNRGEC	285	343	299	34000	25900	22600	119	76	76		
M103205H795-SG1 S267A/M103202L889-SK1 (antibody, human IgG1, kappa, copies: 2 + 2) heavy: not shown light: DIVMTQSPATLSLSPGERATLSCTSSQSVYHANWLSWFQQKPGQPPKLLIYWASTLAYGVPSRFSGSGSGTDFTLTISSLQPEDAATYYCAGGYGGGRYAFGQGTKVEIKRTVAAPSVFIFPPSDEQLKSGTASVVCLLNNFYPREAKVQWKVDNALQSGNSQESVTEQDSKDSTYSLSSTLTLSKADYEKHKVYACEVTHQGLSSPVTKSFNRGEC										binds	binds

Further lines, results first:

Kd (human latent myostatin [1]) [pM]	Kd [2] [pM]	Kd (mouse latent myostatin [3]) [pM]	Kd (human latent myostatin [4]) [pM]	Kd [5] [pM]	Kd (mouse latent myostatin [6]) [pM]	ratio of KD at pH 5.8/pH7.4 (human latent myostatin [7])	ratio of KD at pH 5.8/pH7.4 [8]	ratio of KD at pH 5.8/pH7.4 (mouse latent myostatin [9])	binding result [10]	binding result [11]	Binder
351	419	314	43800	16100	10900	125	38	35			MS_M103205H1046-SG1/M103202L889-SK1 (antibody, human IgG1, kappa, V domains shown, also called MS1032LO10-SG1) VH: QVTLKESGPVLVKPTETLTLTCTVSGIDLSHTDISWVRQAPGKGLEWVGIISYAGKTYYASWAKKRLTISKDTSKNQVVLTMTNMDPVDTATYYCARGVPAYSHGGDLWGQGTLVTVSS VL: DIVMTQSPATLSLSPGERATLSCTSSQSVYHANWLSWFQQKPGQPPKLLIYWASTLAYGVPSRFSGSGSGTDFTLTISSLQPEDAATYYCAGGYGGGRYAFGQGTKVEIKR
									binds	binds	M103205H795-SG1 S239V/M103202L889-SK1 (antibody, human IgG1, kappa, copies: 2 + 2) heavy: not shown light: DIVMTQSPATLSLSPGERATLSCTSSQSVYHANWLSWFQQKPGQPPKLLIYWASTLAYGVPSRFSGSGSGTDFTLTISSLQPEDAATYYCAGGYGGGRYAFGQGTKVEIKRTVAAPSVFIFPPSDEQLKSGTASVVCLLNNFYPREAKVQWKVDNALQSGNSQESVTEQDSKDSTYSLSSTLTLSKADYEKHKVYACEVTHQGLSSPVTKSFNRGEC
164	189	176	1520	929	1020	9	5	6			MS_M103205H795-SG1/M103202L1060-SK1 (antibody, human IgG1, kappa, V domains shown, also called MS1032LO24-SG1) VH: QVTLKESGPVLVKPTETLTLTCTVSGIDLSHDDISWVRQAPGKGLEWVGIISYAGSTYYASWAKGRLTISKDTSKNQVVLTMTNMDPVDTATYYCARGVPAYSHGGDLWGQGTLVTVSS VL: DIVMTQSPATLSLSPGERATLSCTSSQSVFHENWLSWFQQKPGQPPKLLIYWASTLAWGVPSRFSGSGSGTDFTLTISSLQPEDAATYYCAGGYGGGRYAFGQGTKVEIKR

— patent EP4755449A2 (CHUGAI SEIYAKU KABUSHIKI KAISHA, dated 2026)
